# Results taken from US20050148500A1, “Dopaminergic stimulatory factor” (priority 2001, published 2005).
# “Also recorded” adds a separate entry of the source.
# B1: glial derived neurotrophic factor (protein, UniProt P39905 78-211, looked up)
# Glial cell line-derived …: SPDKQMAVLPRRERNRQAAAANPENSRGKGRRGQRGKNRGCVLTAIHLNVTDLGLGYETKEELIFRYCSGSCDAAETTYDKILKNLSRNRRLVSDKVGQACCRPIAFDDDLSFLDDNLVYHILRKHSAKRCGCI
# B2: transforming growth factor β2 (protein, UniProt P61812 303-414, looked up)
# Transforming growth factor …: ALDAAYCFRNVQDNCCLRPLYIDFKRDLGWKWIHEPKGYNANFCAGACPYLWSSDTQHSRVLSLYNTINPEASASPCCVSQDLEPLTILYYIGKTPKIEQLSNMIVKSCKCS
# B3: ciliary neurotrophic factor (protein, UniProt P26441 1-200, looked up)
# Ciliary neurotrophic factor: MAFTEHSPLTPHRRDLCSRSIWLARKIRSDLTALTESYVKHQGLNKNINLDSADGMPVASTDQWSELTEAERLQENLQAYRTFHVLLARLLEDQQVHFTPTEGDFHQAIHTLLLQVAAFAYQIEELMILLEYKIPRNEADGMPINVGDGGLFEKKLWGLKVLQELSQWTVRSIHDLRFISSHQTGIPARGSHYIANNKKM
# Test system: MN9D cells
# Assay: Dopamine content of MN9D cells in monolayer culture after incubation with protein (HPLC)
# Type: cell-based, mouse
# Protocol: […] The MN9D cells on each plate were then collected in 10 ml of CMF, transferred to 15 ml centrifuge tubes and centrifuged at 1000×g for 5 min. The supernatant was removed and 600 μl of 0.5 N perchloric acid was added to the cell pellet which was then sonicated on ice for 10-15 s. The cell extract was centrifuged at 4000×g for 30 min and the supernatant stored at −80° C. for subsequent high pressure liquid chromatography (HPLC) analysis of MN9D cell dopamine content. The pellet was stored at −20° C. for subsequent protein analysis.
# A second experiment was then conducted to determine whether this effect was due to a change in the doubling time (24 h) of the MN9D cells with increased cell production or was the result of an increase in cellular dopamine. […] Cells were removed from the plates and cell numbers determined by counting in a hematocytometer. Dopamine content was determined by HPLC analysis. The MN9D cells can be differentiated by exposure to either sodium butyrate or dibutryl cyclic adenosine monophosphate for 5 days (Choi et al., 1991) resulting in a reduction in the rate of cell division and the production of extensive cellular processes.
# Experiment involved 24 hour incubation with X61 protein(s). X61 protein(s) was incubated with 100 microliter of concentrated monoclonal antibody against 14-3-3 (anti-14-3-3) obtained from Santa Cruz Biotechnology for 15 minutes at room temperature prior to addition to MN9D cells grown on 6-well plates. Data given as ng dopamine per well, n=3. The reason for the lower amounts of dopamine seen in this experiment as compared to that in Tables 2 and 3 is related to differences in time of exposure and plate size. X61 protein(s) were also preincubated with an antibody against neuronal nuclear protein as a control. This antibody had no effect on X61 protein(s) activity.
# After this period, the MN9D cells on each plate are collected in 10 ml of CMF, transferred to 15 ml centrifuge tubes and centrifuged at 1000×g for 5 min. The supernatant is removed and 600 μl of 0.5N perchloric acid is added to the cell pellet which is then sonicated on ice for 10-15 seconds. The material obtained is centrifuged at 4000×g for 30 minutes and the supernatant stored at −80° C. MN9D cell DA content is determined by reverse phase high pressure liquid chromatography with electrochemical detection (HPLC-ED) as previously described (Heller et al., 1993). The pellet is stored at −20° C. for subsequent protein analysis.
molecule,measurement,setting,value
B1,effect on MN9D dopamine levels versus controls,1 ng/ml for 5 days,significantly lower; also recorded: significant decrease
same,MN9D DA levels,"1 ng/ml for 5 days, control 467±18.4",356.0±14.4 ng/plate
B2,effect on MN9D DA levels,,without effect
B3,effect on MN9D dopamine levels,"100 ng/ml, 24 hour treatment",no significant effect
same,MN9D DA levels,"100 ng/ml, 24 hour treatment, controls 157.8±3.3",156.5±10.9 ng/plate
